In US20240343810A1 (published 2024):
One block for each binder: values may come before it.

Assays:
[1] = target: T1, Biotinylated human ICOS protein (human, UniProt Q9Y6W8 21-140, limits assumed, biotinylated (sites not given)); assay: SPR ProteOn avidity format, biotinylated human ICOS on NLC chip; calculated on-rate
T1 construct: Captured on the NLC chip in the avidity SPR
T1 sequence: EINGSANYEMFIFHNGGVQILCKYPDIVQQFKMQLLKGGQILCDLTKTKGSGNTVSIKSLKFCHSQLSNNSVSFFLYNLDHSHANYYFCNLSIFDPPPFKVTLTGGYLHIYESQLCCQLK
Experimental: (§1) Biotinylated human ICOS protein diluted at 7.5 μg/mL in running buffer (1× HBS-EP+ Buffer Technova, cat. No. H8022) was captured on a NLC sensor chip (Bio-Rad, cat No 1765021). The surface was then blocked using biocytin (Sigma Aldrich, cat No B1758) at 1 mg/mL.
(§2) The assay was carried out at 25° C.
The buffer injection (i.e. 0 nM) was used to double reference the sensorgrams. […]

[2] = target: T1, Biotinylated human ICOS protein; assay: SPR ProteOn avidity format, biotinylated human ICOS on NLC chip, antibody analyte; apparent KD from equilibrium, 25 C
Experimental: as §1, §2
(§3) The buffer injection (i.e. 0 nM) was used to double reference the sensorgrams. The analysis was carried out using the equilibrium model inherent to the ProteOn's analysis software for each mAb² construct.

[3] = target: T1, Biotinylated human ICOS protein; assay: SPR ProteOn avidity format, biotinylated human ICOS on NLC chip, antibody analyte, 25 C
Experimental: as §1, §2, §3

kon [1]: 13900 M⁻¹ s⁻¹
Kd [2]: 25.4 nM
koff [3]: 0.000354 s⁻¹
B1: STIM001_289_LAGA (bispecific antibody, V domains shown, not shown: a dimerising Fc or GST)
VH: QVQVVQSGAEVKKPGASVKVSCKASGYTFSTFGITWVRQAPGQGLEWMGWISAYNGDTNYAQNLQGRVIMTTDTSTSTAYMELRSLRSDDTAVYYCARSSGHYYYYGMDVWGQGTTVTVSS
VL: DIVMTQSPLSLPVTPGEPASISCRSSQSLLHSNEYNYLDWYLQKPGQSPQLLIFLGSNRASGVPDRFSGSGSGTDFTLKITRVEAEDVGIYYCMQSLQTPLTFGGGTKVEIK

kon [1]: 31300 M⁻¹ s⁻¹
Kd [2]: 10.6 nM
koff [3]: 0.000332 s⁻¹
B2: STIM001_457_LAGA (bispecific antibody, V domains shown, not shown: a dimerising Fc or GST)
VH: B1 VH
VL: B1 VL
notes: LAGA variant of STIM001_457

kon [1]: 477000 M⁻¹ s⁻¹
Kd [2]: 0.6 nM
koff [3]: 0.000278 s⁻¹
B3: STIM003_289_LAGA (bispecific antibody, V domains shown, not shown: a dimerising Fc or GST)
VH: EVQLVESGGGVVRPGGSLRLSCVASGVTFDDYGMSWVRQAPGKGLEWVSGINWNGGDTDYSDSVKGRFTISRDNAKNSLYLQMNSLRAEDTALYYCARDFYGSGSYYHVPFDYWGQGILVTVSS
VL: EIVLTQSPGTLSLSPGERATLSCRASQSVSRSYLAWYQQKRGQAPRLLIYGASSRATGIPDRFSGDGSGTDFTLSISRLEPEDFAVYYCHQYDMSPFTFGPGTKVDIK
notes: LAGA variant of STIM003_289

kon [1]: 284000 M⁻¹ s⁻¹
Kd [2]: 0.8 nM
koff [3]: 0.000232 s⁻¹
B4: STIM003_457_LAGA (bispecific antibody, V domains shown, not shown: a dimerising Fc or GST)
VH: B3 VH
VL: B3 VL
notes: LAGA variant of STIM003_457
